Laboratory results as given in US11098109B2, “Single-chain variable fragment anti-CD133 antibodies and uses thereof” (REGENTS OF THE UNIVERSITY OF MINNESOTA, priority 2010, dated 2021).

Tests used:
human prominin-1 = target: T1, human prominin-1 (Homo sapiens, UniProt O43490, DEL381-611); assay: ELISA of hybridoma supernatant on recombinant C-prominin-1; format: binding; details: supernatant at 1:1, 1:10, 1:100, 1:500 dilution
T1 construct: His-tag (6xHis) (N); made in house
T1 sequence (O43490 with tags, fused parts or gaps DEL381-611): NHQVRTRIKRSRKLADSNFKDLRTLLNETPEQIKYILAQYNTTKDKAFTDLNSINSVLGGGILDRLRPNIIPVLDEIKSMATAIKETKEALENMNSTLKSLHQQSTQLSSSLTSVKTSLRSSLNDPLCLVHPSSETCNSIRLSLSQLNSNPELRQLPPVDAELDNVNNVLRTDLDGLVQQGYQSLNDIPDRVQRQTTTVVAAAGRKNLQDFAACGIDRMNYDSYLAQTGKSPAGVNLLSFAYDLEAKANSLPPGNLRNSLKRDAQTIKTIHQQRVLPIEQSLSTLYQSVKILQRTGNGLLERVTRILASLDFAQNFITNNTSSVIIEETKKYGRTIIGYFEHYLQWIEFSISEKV
Experimental: The hybridoma cells were cultured in DMEM with 10% FBS. When the cells were confluent, they were grown for additional 2-3 days. The supernatant was harvested for ELISA. The recombinant C-prominin-1 protein was coated at a 1:1000 dilution in 96-well plate and incubated at 4° C. ovemight. The coating buffer was discarded, the protein was washed 1 time, 300 μl/well of 5% milk buffer was added, and incubated at 4° C. overnight.
The hybridoma supernatant was diluted with 5% milk buffer at 1:1, 1:10, 1:100, 1:500 and 50 μL/well was added and incubated at 37° C. for one hour. The wells were washed four times, and 50 μL/well goat anti-mouse secondary antibody-HOURP conjugate was added at a dilution of 1:2000 and incubated at 37° C. for one hour. Washed four times, and added 50 μL/well substrate.

CD133 = target: T2, CD133 (Homo sapiens, UniProt O43490); assay: Tunicamycin glycosylation inhibition, Western blot of Caco-2 lysates; format: binding; details: Caco-2 cells treated with tunicamycin
T2 construct: endogenous in cells
T2 sequence (O43490 20-865): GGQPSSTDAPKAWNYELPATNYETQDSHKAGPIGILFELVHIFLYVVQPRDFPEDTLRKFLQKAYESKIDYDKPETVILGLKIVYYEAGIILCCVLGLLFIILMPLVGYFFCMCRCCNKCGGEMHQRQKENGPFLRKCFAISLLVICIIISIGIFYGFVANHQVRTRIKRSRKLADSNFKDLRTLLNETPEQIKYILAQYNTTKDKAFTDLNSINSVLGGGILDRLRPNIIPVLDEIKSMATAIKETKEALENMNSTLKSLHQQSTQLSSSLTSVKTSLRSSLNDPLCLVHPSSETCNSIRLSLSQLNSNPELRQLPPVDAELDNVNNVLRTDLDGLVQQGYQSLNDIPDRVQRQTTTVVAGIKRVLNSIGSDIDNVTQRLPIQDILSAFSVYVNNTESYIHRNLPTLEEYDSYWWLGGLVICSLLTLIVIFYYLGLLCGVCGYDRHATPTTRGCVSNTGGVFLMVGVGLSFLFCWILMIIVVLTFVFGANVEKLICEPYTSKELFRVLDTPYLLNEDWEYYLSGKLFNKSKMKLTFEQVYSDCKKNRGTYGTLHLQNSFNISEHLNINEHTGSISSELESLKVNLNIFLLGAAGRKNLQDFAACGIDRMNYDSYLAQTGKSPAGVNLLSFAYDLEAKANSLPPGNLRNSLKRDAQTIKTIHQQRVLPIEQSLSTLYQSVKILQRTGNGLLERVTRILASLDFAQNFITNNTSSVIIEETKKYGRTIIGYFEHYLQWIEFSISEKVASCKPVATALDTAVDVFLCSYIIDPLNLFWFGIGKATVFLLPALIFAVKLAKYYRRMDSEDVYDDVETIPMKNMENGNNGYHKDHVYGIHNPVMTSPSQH
Experimental: FIG. 3: Specificity of antibody produced by Hybridoma Clone 7. (A) Flow cytometry. Cells were incubated with primary antibody from either Hybridoma Clone 7 or 293C3 (Militenyi), followed by incubation with a labeled secondary antibody, and then analyzed by flow cytometry. Antibody from the newly developed anti-CD133 Hybridoma Clone 7 (open black histogram) stains very specifically the CD133-overexpressing cells, Caco-2 (iii), GBM6 (iv) and U87 cells transfected with CD133 (ii) but not CD133 negative U87 cells (i). Immunostaining using the monoclonal antibody produced by Hybridoma Clone 7 is compared to clone 293C3 (open grey histogram). Isotype control is represented by solid grey histogram. (B) Tunicamycin mediated glycosylation inhibition. Caco-2 cells were treated with increasing doses of tunicamycin (2.5, 5, 10, 20 μg/ml) for 3 days. DMSO treated cells or untreated cells served as controls. Cells were lysed and then analyzed by Western blotting using the monoclonal antibody produced by Hybridoma Clone 7 or GAPDH antibodies.
Caco-2 cells were seeded in 6-well plates and treated with 2.5 μg/ml-20 μg/ml tunicarmycin or vehicle (medium containing 0.1% DMSO) for three days. […] The lysates were centrifuged to remove cell debris and then analyzed by western blotting using either Hybridoma Clone 7 or anti-GAPDH (Sigma-Aldrich Corp., St. Louis, Mo.) as primary antibodies.

B1: Hybridoma Clone 7: monoclonal antibody produced by Hybridoma Clone 7 that specifically binds to human CD133 (antibody, V domains shown)
VL: DIVLSQSPAIMSASPGEKVTISCSASSSVSYMYWYQQKPGSSPKPWIYRTSNLASGVPARFSGSGSGTSYSLTISSMEAEDAATYYCQQYHSYPPTFGAGTKLELK
VH: LEVKLVESGPELKKPGETVKISCKASGYTFTDYSMHWVNQAPGKGLKWMGWINTETGEPSYADDFKGRFAFSLETSASTAYLQINNLKNEDTATYFCATDYGDYFDYWGQGTTLTVSS
- reaction of supernatant with human prominin-1 in ELISA (human prominin-1): binds its antigen with high specificity and affinity
- epitope recognized (glycosylated or not) (CD133): specifically binds to an non-glycosylated epitope
